Data on 42 molecules can be found in publication PMC7582325, “How Human H1 Histone Recognizes DNA” (Molecules, 2020).

Data set [1] has as its target T1, H1° histone (human recombinant; H1 histone) (Homo sapiens, UniProt P07305).
T1 construct: gene H1-0; commercial recombinant human H1° (BioLabs M2501S), free histone
As to the kind of experiment: competition with […]'-[…]TAGAAGATCAAA, nitrocellulose filter binding. The note with it: 20 mM Tris-HCl pH 7.5, 5 mM MgCl2, 1 mM EDTA, 20 °C, 0.3 mg/mL H1; Kd taken as I50 with 12 µM labelled 12-mer (its Kd); error not above 10–12%.

The target of data set [2] is T2, histone H1° (H1.0) (Homo sapiens, UniProt P07305 1-194). The experiment in a line: competition filter binding (I50). Particulars: 5' phosphate; 20 mM Tris-HCl pH 7.5, 5 mM MgCl2, 1 mM EDTA, 0.3 mg/mL H1, 1 h at 20 C; nitrocellulose filters; competition against 12.0 uM 32P 12-mer; mononucleotides ….
T2 sequence (P07305 whole entry): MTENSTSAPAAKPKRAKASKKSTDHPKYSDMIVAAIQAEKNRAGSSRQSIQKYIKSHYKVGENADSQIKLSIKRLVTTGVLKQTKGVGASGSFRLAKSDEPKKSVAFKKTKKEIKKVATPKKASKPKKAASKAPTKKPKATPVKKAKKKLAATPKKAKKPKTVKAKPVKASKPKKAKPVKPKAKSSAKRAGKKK
In data set [3] the target is T2, histone H1° (H1.0). As to the kind of experiment: competition filter binding (I50); 5 mM Mg2+; 20 mM Tris-HCl pH 7.5, 5 mM MgCl2, 1 mM EDTA, 0.3 mg/mL H1, 1 h at 20 C; nitrocellulose filters; competition against 12.0 uM 32P 12-mer; mononucleotides dAMP/dCMP/dTMP not listed. Particulars: protein: commercial.
Data set [4] concerns the target T2, histone H1° (H1.0). As to the kind of experiment: filter binding; 5 mM Mg2+; 20 mM Tris-HCl pH 7.5, 5 mM MgCl2, 1 mM EDTA, 0.3 mg/mL H1, 1 h at 20 C; nitrocellulose filters; competition against 12.0 uM 32P 12-mer; mononucleotides dAMP/dCMP/dTMP not listed. Particulars: protein: commercial; label: 5'-32P.
[5] abbreviates: mixture of complementary strands, not a preformed duplex.

T1 sequence (P07305 2-194): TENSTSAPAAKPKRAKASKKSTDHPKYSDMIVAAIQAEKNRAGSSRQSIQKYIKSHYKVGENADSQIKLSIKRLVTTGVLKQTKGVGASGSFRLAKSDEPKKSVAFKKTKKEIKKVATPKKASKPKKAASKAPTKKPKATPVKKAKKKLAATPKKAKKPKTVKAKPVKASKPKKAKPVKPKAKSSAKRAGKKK

A word on the Kd: it is the free concentration of one partner at which half of the binding sites on the other are occupied at equilibrium, for simple one-to-one binding. Consider `Nc1ccn([C@H]2C[C@H](O)[C@@H](COP(=O)(O)O)O2)c(=O)n1` [dCMP], for which the Kd in data set [1] turned out to be 10000 µM.

Take `Nc1ncnc2c1ncn2[C@H]1C[C@H](O)[C@@H](COP(=O)(O)O)O1` [dAMP]: the Kd in data set [1] was determined as 16000 µM.

With `Cc1cn([C@H]2C[C@H](O)[C@@H](COP(=O)(O)O)O2)c(=O)[nH]c1=O` [dTMP], the Kd in data set [1] was 13000 µM.

In data set [2], d(pC)2 yielded a Kd of 4400 µM.

In the case of CCCCCC (ssDNA, 5' phosphate) [d(pC)6], the Kd in data set [3] was determined as 61 µM.

AAAAAAAAAA (ssDNA, 5' phosphate) [d(pA)10] yielded a Kd in data set [3] of 28 µM.

B1: ODN1 x ODNcom1 (dsDNA)
DNA 1: CAGACGATCAGCGACGCGTC
DNA 2: GACGCGTCGCTGATCGTCTG
In turn, B1 had a Kd in data set [3] (blunt) of 2.7 µM.

B2: d(pA)3 + d(pT)3 mixture (mixed)
?: AAA
DNA: TTT
modifications: 5' phosphate
Consider B2, for which, in data set [3] (setting [5]), the Kd came out at 1000 µM.

On to CCCCC (ssDNA, 5' phosphate) [d(pC)5], for which the Kd in data set [3] came to 300 µM.

AGTGCCTGACCGTCGTCGAC (ssDNA) [ODN2] displayed a Kd in data set [3] of 3.8 µM.

CAGACGATCAGCGACGCGTC (ssDNA) [ODN1]: the Kd in data set [3] stood at 4 µM.

In data set [3], CCCCCCCC (ssDNA, 5' phosphate) [d(pC)8] displayed a Kd of 34 µM.

Regarding TAGAAGATCAAA (ssDNA, 5' phosphate (32P)) [12-mer hetero-ON 32P probe], binding in data set [4] was characterised by a dissociation constant (Kd) of 12 µM.

Turning to TTTTTTTTTT (ssDNA, 5' phosphate) [d(pT)10], the Kd in data set [3] is 25 µM.

B3: d(pA)12 x d(pT)12 (dsDNA)
DNA 1: AAAAAAAAAAAA
DNA 2: TTTTTTTTTTTT
modifications: 5' phosphate
Molecule B3 yielded a Kd in data set [3] (blunt) of 7.5 µM.

As to GTCGACGACGGTCAGGCACT (ssDNA) [ODNcom2], in data set [3], the Kd was determined as 4.1 µM.

AAAAA (ssDNA, 5' phosphate) [d(pA)5]: in data set [3], binding was characterised by a dissociation constant (Kd) of 70 µM.

B4: d(pA)16 x d(pT)16 (dsDNA)
DNA 1: AAAAAAAAAAAAAAAA
DNA 2: TTTTTTTTTTTTTTTT
modifications: 5' phosphate
In the case of B4, in data set [3] (blunt), the Kd was found to be 3.8 µM.

Regarding GACGCGTCGCTGATCGTCTG (ssDNA) [ODNcom1], in data set [3], binding was characterised by a dissociation constant (Kd) of 3.7 µM.

Turning to TAGAAGATCAAA (ssDNA) [12-mer hetero-ON, unlabeled competitor], the affinity in data set [3], expressed as Kd, was 12 µM.

Consider AAAAAAAAAAAA (ssDNA, 5' phosphate) [d(pA)12], for which the Kd in data set [3] was 14 µM.

The molecule TTTTTTTTTTTTTTTTTTTT (ssDNA, 5' phosphate) [d(pT)20] yielded a Kd in data set [3] of 4.6 µM.

For the molecule TTTTT (ssDNA, 5' phosphate) [d(pT)5], binding in data set [3] was put at a Kd of 75 µM.

TTTTTTTTTTTTTTTT (ssDNA, 5' phosphate) [d(pT)16]: the Kd in data set [3] turned out to be 5 µM.

Molecule CCCCCCCCCCCC (ssDNA, 5' phosphate) [d(pC)12] registered a Kd in data set [3] of 20 µM.

In data set [3], AAAAAAAAAAAAAAAAAAAA (ssDNA, 5' phosphate) [d(pA)20] came in with a Kd of 10 µM.

In data set [3], CCCCCCCCCC (ssDNA, 5' phosphate) [d(pC)10] gave a Kd of 25 µM.

In data set [3], TTTTTTTTTTTT (ssDNA, 5' phosphate) [d(pT)12] returned a Kd of 10 µM.

In data set [3], AAAA (ssDNA, 5' phosphate) [d(pA)4] came in with a Kd of 240 µM.

TAAAATCAAA (ssDNA) [10-mer d(TAAAATCAAA)] gave a Kd in data set [3] of 30 µM.

B5: d(pA)6 + d(pT)6 mixture (mixed)
?: AAAAAA
DNA: TTTTTT
modifications: 5' phosphate
Regarding B5, the Kd in data set [3] (setting [5]) came out at 55 µM.

In turn, TTTT (ssDNA, 5' phosphate) [d(pT)4] had a Kd in data set [3] of 96 µM.

TTTTTTTT (ssDNA, 5' phosphate) [d(pT)8]: in data set [3], binding was put at a Kd of 76 µM.

Molecule TCCCATCAAA (ssDNA) [10-mer d(TCCCATCAAA)] came in with a Kd in data set [3] of 30 µM.

AAAAAAAAAAAAAAAA (ssDNA, 5' phosphate) [d(pA)16] yielded a Kd in data set [3] of 10 µM.

Consider TATAATCTTA (ssDNA) [10-mer d(TATAATCTTA)], for which binding in data set [3] was characterised by a dissociation constant (Kd) of 28 µM.

In data set [3], AAAAAA (ssDNA, 5' phosphate) [d(pA)6] returned a Kd of 57 µM.

Molecule AAAAAAAA (ssDNA, 5' phosphate) [d(pA)8] came in with a Kd in data set [3] of 48 µM.

B6: d(pA)20 x d(pT)20 (dsDNA)
DNA 1: AAAAAAAAAAAAAAAAAAAA
DNA 2: TTTTTTTTTTTTTTTTTTTT
modifications: 5' phosphate
Consider B6, for which, in data set [3] (blunt), the Kd turned out to be 3 µM.

The molecule TTTTTT (ssDNA, 5' phosphate) [d(pT)6] displayed a Kd in data set [3] of 48 µM.

B7: ODN2 x ODNcom2 (dsDNA)
DNA 1: AGTGCCTGACCGTCGTCGAC
DNA 2: GTCGACGACGGTCAGGCACT
In data set [3] (blunt), B7 had a Kd of 2.9 µM.

ATG (ssDNA, 5' phosphate) [d(pATG)] showed a Kd in data set [3] of 1500 µM.
